± gives the standard deviation.
Assay: collision cross section of unmodified peptide (TIMS, N2, iRT-aligned); higher = larger / more extended gas-phase ion
Experimental: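 Unmodified synthetic counterpart peptides (ProteomeTools / JPT), analysed by nanoLC-TIMS-QTOF (dda-PASEF). 1/K0 was aligned run-wise to spiked iRT peptides and converted to CCS in N2 (Mason-Schamp). Values are the mean of 1-3 technical replicates for the most abundant feature at each charge state. The same unmodified peptide is repeated across rows and is averaged.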

Substance | collision cross section (charge state: 2) | collision cross section (charge state: 3)
AGPNASIISLKSDK | 408.7 ± 1.4 Å² | 483.51 ± 6.7 Å²
AGQKLIDVNHYAK | 420.25 ± 2.7 Å² | 474.66 ± 4.5 Å²
AGRGFSLEELR | 376.05 ± 0.67 Å² | 459.45 ± 3.3 Å²
AIEINPDSAQPYK | 394.83 ± 1.7 Å² | –
AIQLNPSYIR | 373.91 ± 2.8 Å² | –
ALASIDSKLNQAK | 410.25 ± 2 Å² | 481.52 ± 3.4 Å²
ALLQAKASGK | 343.27 ± 1.1 Å² | 435.19 ± 4.7 Å²
ALYETELADAR | 385.99 ± 0.47 Å² | –
ANAIGRGAK | 319.32 ± 2.5 Å² | –
ANEKTESSSAQQVAVSR | 440.94 ± 1.7 Å² | 497.75 ± 27 Å²
ANLEKAQAELVGTADEATR | 474.85 ± 3.3 Å² | 519.38 ± 2.8 Å²
APEYLHR | 313.96 ± 0.73 Å² | –
APIISGVTK | 322.45 ± 0.15 Å² | –
APPIDRSILPTAPR | 416.59 ± 1.1 Å² | 492.42 ± 3.4 Å²
APVGSVVSVPSQSSASSDK | 452.28 ± 0.77 Å² | –
AQLSQYFDAVK | 384.48 ± 1.1 Å² | –
AQPQDSRGGSK | 349.19 ± 0.54 Å² | 421.45 ± 6.4 Å²
AQPSASLGVGYR | 364.53 ± 0.14 Å² | –
AQSYAQQLGR | 352.59 ± 0.74 Å² | –
AQVLAGGRGK | 345.66 ± 0.88 Å² | –
ASAISIKLGSSK | 373.11 ± 0.93 Å² | 446.31 ± 5.8 Å²

Substance | collision cross section (charge state: 2) | collision cross section (charge state: 3)
ASCLYGQLPK | 363.85 ± 0.6 Å² | –
ASDTSSETVFGKR | 399.16 ± 2.1 Å² | 477.62 ± 3.6 Å²
ASEALLKQLK | 367.26 ± 1.1 Å² | 459.21 ± 3.1 Å²
ASNAAVKLAESK | 381.6 ± 0.7 Å² | 452.24 ± 3.2 Å²
ASPPLFQSR | 339.74 ± 0.58 Å² | –
ASTPGAAAQIQEVK | 395.93 ± 0.14 Å² | –
ATAVVDGAFK | 329.06 ± 0.69 Å² | –
ATVASSTQKFQDLGVK | 459.73 ± 1.9 Å² | 485.98 ± 5 Å²
AVAITQSPSSVR | 368.2 ± 0.14 Å² | –
AVPSSPAGSAARGR | 380.85 ± 0.71 Å² | 489.36 ± 2 Å²
AVSILPLLGHGVPRLPPGR | – | 563.87 ± 2.3 Å²
AYDATHLVK | 353.02 ± 0.48 Å² | 420.22 ± 1.4 Å²
AYGELPEHAK | 366.13 ± 0.54 Å² | 441.2 ± 1.1 Å²
AYILNLVK | 331.04 ± 1.1 Å² | –
AYPLADAHLTK | 383.63 ± 0.16 Å² | 452.45 ± 1.1 Å²
CQGGQETQEYR | 370.06 ± 0.16 Å² | –
CSVLAAANPVYGR | 385.24 ± 0.16 Å² | –
CYYGSDTAGR | 353.22 ± 1.1 Å² | –
DAEAAEATAEGALKAEK | 458.36 ± 2.4 Å² | 544.24 ± 2.9 Å²
DAIHFYNKSLAEHR | 440.43 ± 2.3 Å² | 501.63 ± 3.9 Å²
DASTLQSQKAEGTGDAK | 442.88 ± 2.3 Å² | 495.18 ± 2.5 Å²

Substance | collision cross section (charge state: 2) | collision cross section (charge state: 3)
DDIIENAPTTHTEEYSGEEK | – | 551.19 ± 0.23 Å²
DDSFLGKLGGTLAR | 410.69 ± 1.4 Å² | 475.25 ± 2.7 Å²
DDSNLYINVK | 367.7 ± 0.74 Å² | –
DESFLGKLGGTLAR | 409.59 ± 1.4 Å² | 475.21 ± 2.7 Å²
DFAFYNPRLQGK | 408.01 ± 1.3 Å² | 473.2 ± 2.9 Å²
DFDTALKHYDK | 391.79 ± 0.64 Å² | 447.79 ± 3.3 Å²
DFSLTSSSQTPGATK | 412.17 ± 0.66 Å² | 461.25 ± 8.8 Å²
DHLSDKESK | 345.48 ± 0.71 Å² | 415 ± 3.9 Å²
DHSKPISNPSDNK | 390.86 ± 0.14 Å² | 478.96 ± 0.22 Å²
DKALPLEAEVAPVK | 407.43 ± 3.2 Å² | 507.63 ± 4.6 Å²
DLATVYVDVLK | 382.78 ± 0.75 Å² | –
DLEEAEEYK | 358.42 ± 0.55 Å² | –
DLGKFQVATDALK | 413.55 ± 3.7 Å² | 498.11 ± 6.1 Å²
DLSTVEALQNLKNLK | 472.99 ± 2.9 Å² | 543.69 ± 1.2 Å²
DLTTAGAVTQCYR | 396.98 ± 0.16 Å² | 489.14 Å²
DLYEPSHGAK | 358.09 ± 0.48 Å² | 429.53 ± 1.1 Å²
DNNNSNNRGSYNR | – | 461.19 ± 2.6 Å²
DSINFLDHINGKK | – | 459.87 ± 3.8 Å²
DSLGVSFPEELACK | 418.18 ± 0.66 Å² | –
DSRGGGGNFGPGPGSNFR | – | 474.13 ± 0.75 Å²
DSSPTTNSKLSALQR | 418.1 ± 2.2 Å² | 485.64 ± 4.2 Å²

Substance | collision cross section (charge state: 2) | collision cross section (charge state: 3)
DTGEKLTVAENEAETK | 436.86 ± 2.7 Å² | 520.99 ± 1.8 Å²
DTPTSAGPNSFNKGK | 410.87 ± 2 Å² | 465.77 ± 5.4 Å²
DVFISAAER | 340.13 ± 0.68 Å² | –
DVNAAIAAIKTK | 391.89 ± 2.3 Å² | 461.97 ± 1.6 Å²
DYGNSPLHR | 339.65 ± 0.48 Å² | 430.38 ± 2 Å²
DYILEGEPGK | 348.93 ± 0.15 Å² | –
DYNVTANSK | 328.46 ± 2 Å² | –
DYQPGITFIVVQK | 401.42 ± 0.24 Å² | 485.74 Å²
DYQPGITFIVVQKR | 447.74 ± 2 Å² | 520.02 ± 0.34 Å²
DYSAPVNFISAGLKK | 443.09 ± 2.3 Å² | 512.68 ± 2.7 Å²
DYSQPTAAATVQDIK | 421.28 ± 0.57 Å² | –
DYSSGFGGKYGVQADR | 432 ± 2.6 Å² | 489.69 ± 5.9 Å²
DYSVTANSK | 329.32 ± 0.58 Å² | –
DYVSQFEGSALGK | 385.54 ± 0.47 Å² | –
EEKPAVTAAPK | 359.42 ± 0.68 Å² | 467.02 ± 0.22 Å²
EGFSIPVSADGFK | 384.97 ± 0.14 Å² | –
ELANFDPSRPGPPSGR | – | 494.4 ± 1 Å²
EPFSGDHSADGFEVTSR | – | 491.61 ± 0.86 Å²
ESISVSSEQLAQFR | 416.66 ± 2.8 Å² | –
ETTPSSLAVTQTMATK | 434.06 ± 0.13 Å² | –
EVVKPVPITSPAVSK | 412.92 ± 0.57 Å² | 534.95 ± 0.86 Å²

— the supplement of paper PMC10598134
